Measured values as given in publication PMC9440123, “Rtt105 regulates RPA function by configurationally stapling the flexible domains” (Nature Communications, 2022).

Columns and labels:
[1] = molecular target: T1, RPA-DBD-D-Cy3;Rtt105-Cy5 (C13S) (Saccharomyces cerevisiae;Saccharomyces …, UniProt P22336;P26754;P26755;P40063 1-621;1-273;1-122;1-208, |C13S); experiment: FRET titration; ssDNA-induced Rtt105 release from preformed RPA-Rtt105 (200 nM each); EMSA: 25 mM Tris-Cl pH 7.5, 200 mM NaCl, 5 mM MgCl2, 5% glycerol, 0.05% Tween-20, 25 C; anisotropy/FRET: 30 mM HEPES pH 7.8, 100 mM KCl, 6% glycerol, 5 mM MgCl2, 1 mM bME, 23 C (stopped flow 25 C); settings: protein: recombinant;recombinant; tags: Cy3 on DBD-D via 4AZP;Cy5 on Cys12; copies: 1;1;1;1
RPA (RPA70/RPA32/RPA14) [2] = molecular target: T2, RPA (RPA70/RPA32/RPA14) (Saccharomyces cerevisiae, UniProt P22336;P26754;P26755 1-621;1-273;1-122); experiment: fluorescence anisotropy; ~2 RPA per DNA; EMSA: 25 mM Tris-Cl pH 7.5, 200 mM NaCl, 5 mM MgCl2, 5% glycerol, 0.05% Tween-20, 25 C; anisotropy/FRET: 30 mM HEPES pH 7.8, 100 mM KCl, 6% glycerol, 5 mM MgCl2, 1 mM bME, 23 C (stopped flow 25 C); settings: protein: recombinant; copies: 1;1;1
[3] = molecular target: T3, RPA (RPA70/RPA32/RPA14);Rtt105 (Saccharomyces cerevisiae;Saccharomyces …, UniProt P22336;P26754;P26755;P40063 1-621;1-273;1-122;1-208, |); experiment: SEC; [RPA]2-(dT)70 without Rtt105, plus Rtt105-RPA-(dT)70; EMSA: 25 mM Tris-Cl pH 7.5, 200 mM NaCl, 5 mM MgCl2, 5% glycerol, 0.05% Tween-20, 25 C; anisotropy/FRET: 30 mM HEPES pH 7.8, 100 mM KCl, 6% glycerol, 5 mM MgCl2, 1 mM bME, 23 C (stopped flow 25 C); settings: protein: recombinant;recombinant; tags: ;; copies: 1;1;1;1
RPA (RPA70/RPA32/RPA14) [4] = molecular target: T2, RPA (RPA70/RPA32/RPA14); experiment: fluorescence anisotropy; no Rtt105; 5 mM MgCl2; stoichiometric, apparent Kd; EMSA: 25 mM Tris-Cl pH 7.5, 200 mM NaCl, 5 mM MgCl2, 5% glycerol, 0.05% Tween-20, 25 C; anisotropy/FRET: 30 mM HEPES pH 7.8, 100 mM KCl, 6% glycerol, 5 mM MgCl2, 1 mM bME, 23 C (stopped flow 25 C); settings: protein: recombinant; copies: 1;1;1
[5] = molecular target: T3, RPA (RPA70/RPA32/RPA14);Rtt105; experiment: fluorescence anisotropy; Rtt105 1:1; 5 mM MgCl2; stoichiometric, apparent Kd; EMSA: 25 mM Tris-Cl pH 7.5, 200 mM NaCl, 5 mM MgCl2, 5% glycerol, 0.05% Tween-20, 25 C; anisotropy/FRET: 30 mM HEPES pH 7.8, 100 mM KCl, 6% glycerol, 5 mM MgCl2, 1 mM bME, 23 C (stopped flow 25 C); settings: protein: recombinant;recombinant; tags: ;; copies: 1;1;1;1
[6] = molecular target: T1, RPA-DBD-D-Cy3;Rtt105-Cy5 (C13S); experiment: FRET titration; ssDNA-induced remodeling of preformed RPA-Rtt105 (200 nM each); EMSA: 25 mM Tris-Cl pH 7.5, 200 mM NaCl, 5 mM MgCl2, 5% glycerol, 0.05% Tween-20, 25 C; anisotropy/FRET: 30 mM HEPES pH 7.8, 100 mM KCl, 6% glycerol, 5 mM MgCl2, 1 mM bME, 23 C (stopped flow 25 C); settings: protein: recombinant;recombinant; tags: Cy3 on DBD-D via 4AZP;Cy5 on Cys12; copies: 1;1;1;1

T2 sequence (P22336 whole entry, chain 1 of 3): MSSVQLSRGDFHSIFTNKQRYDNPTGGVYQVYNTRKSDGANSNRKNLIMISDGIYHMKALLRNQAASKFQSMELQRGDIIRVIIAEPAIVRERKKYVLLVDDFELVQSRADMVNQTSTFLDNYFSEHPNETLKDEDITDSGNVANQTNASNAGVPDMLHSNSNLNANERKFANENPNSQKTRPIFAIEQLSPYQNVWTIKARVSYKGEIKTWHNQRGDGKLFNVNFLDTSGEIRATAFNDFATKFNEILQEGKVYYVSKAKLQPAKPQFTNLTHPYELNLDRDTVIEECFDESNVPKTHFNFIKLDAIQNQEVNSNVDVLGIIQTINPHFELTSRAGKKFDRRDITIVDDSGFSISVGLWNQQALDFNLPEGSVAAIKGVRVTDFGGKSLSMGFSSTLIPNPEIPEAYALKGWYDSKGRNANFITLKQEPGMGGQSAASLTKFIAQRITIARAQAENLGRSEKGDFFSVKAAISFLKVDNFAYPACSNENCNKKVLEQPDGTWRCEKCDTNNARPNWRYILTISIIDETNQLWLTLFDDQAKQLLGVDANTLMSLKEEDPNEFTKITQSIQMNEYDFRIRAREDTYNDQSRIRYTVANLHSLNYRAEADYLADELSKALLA
T2 sequence (P26754 whole entry, chain 2 of 3): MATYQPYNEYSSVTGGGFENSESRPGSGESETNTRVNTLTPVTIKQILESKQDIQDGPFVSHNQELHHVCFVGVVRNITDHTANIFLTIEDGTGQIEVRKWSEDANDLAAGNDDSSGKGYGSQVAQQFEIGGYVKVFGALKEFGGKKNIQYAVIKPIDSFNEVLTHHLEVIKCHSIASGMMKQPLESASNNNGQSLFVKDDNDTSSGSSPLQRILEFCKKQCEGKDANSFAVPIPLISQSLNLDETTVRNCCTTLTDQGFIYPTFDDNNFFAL
T2 sequence (P26755 whole entry, chain 3 of 3): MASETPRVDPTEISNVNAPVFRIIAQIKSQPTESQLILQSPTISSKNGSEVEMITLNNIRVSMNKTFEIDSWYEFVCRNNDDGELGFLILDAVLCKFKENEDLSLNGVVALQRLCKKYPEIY
T3 sequence (P22336 whole entry, chain 1 of 4): as the sequence (P22336 whole entry, chain 1 of 3) above
T3 sequence (P26754 whole entry, chain 2 of 4): as the sequence (P26754 whole entry, chain 2 of 3) above
T3 sequence (P26755 whole entry, chain 3 of 4): as the sequence (P26755 whole entry, chain 3 of 3) above
T3 sequence (P40063 whole entry, chain 4 of 4): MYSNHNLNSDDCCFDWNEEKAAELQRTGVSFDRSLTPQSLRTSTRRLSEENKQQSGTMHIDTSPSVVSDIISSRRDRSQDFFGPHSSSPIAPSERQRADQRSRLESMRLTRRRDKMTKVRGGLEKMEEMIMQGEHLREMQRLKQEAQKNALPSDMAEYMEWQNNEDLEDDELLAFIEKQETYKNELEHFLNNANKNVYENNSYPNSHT
T1 sequence (P22336 whole entry, chain 1 of 4): as the sequence (P22336 whole entry, chain 1 of 3) above
T1 sequence (P26754 whole entry, chain 2 of 4): as the sequence (P26754 whole entry, chain 2 of 3) above
T1 sequence (P26755 whole entry, chain 3 of 4): as the sequence (P26755 whole entry, chain 3 of 3) above
T1 sequence (P40063 whole entry C13S, chain 4 of 4): as the sequence (P40063 whole entry, chain 4 of 4) above, with C13S counted along it

B1: (dT)70 (ssDNA)
DNA: TTTTTTTTTTTTTTTTTTTTTTTTTTTTTTTTTTTTTTTTTTTTTTTTTTTTTTTTTTTTTTTTTTTTTT
For B1, the “apparent K (half saturation)” value [1] was 42.8 ± 0.37 nM, the binding result (RPA (RPA70/RPA32/RPA14) [2]) was “binds” and the binding result [3] was “binds”.

B2: FAM-(dT)35 (ssDNA)
DNA: TTTTTTTTTTTTTTTTTTTTTTTTTTTTTTTTTTT
In the case of B2, the Kd (RPA (RPA70/RPA32/RPA14) [4]) is reported as 4 ± 1.3 nM and the Kd [5] is reported as 2.4 ± 1.2 nM.

B3: (dT)35 (ssDNA)
DNA: B2 DNA
In the case of B3, the “apparent K (half saturation)” value [6] is reported as 130 ± 10.5 nM.
